These results are taken from patent US20230374147A1.

In this experiment the target is His-tagged mouse BCMA (Acro Biosystems, BCA-M52H3) (mouse) (UniProt O88472). In words: ELISA, hybridoma supernatant, coated His-tagged antigen.
His-tagged mouse BCMA (Acro Biosystems, BCA-M52H3) (mouse), sequence (O88472 1-49 limits assumed): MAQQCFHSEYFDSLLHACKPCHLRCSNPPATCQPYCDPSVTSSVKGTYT

B1: 539-SP5-D7 (antibody produced by the hybridoma) (antibody, V domains shown)
VH: EVMLVDSGGNLVKPGGSLKLSCAASGFTFSNYVISWVRQTPEKRLEWVATISTVGTNTYYPDSVRGRFTISRDNAENTLYLQMSSLRSEDTAIYYCSRHKYGYDDPSYAMDYWGQGTSVTVSS
VL: QLVLTQSSSASFSLGASAKLTCTLSSQHSTYTIEWYQQQPLKPPKYVMELKKDGSHSTGDGIPDRFSGSSSGADRYLSISNIQAEDEAIYICGVGDTVKEQFVYVFGGGTKVTVL
Molecule B1 displayed an ELISA values (OD 450 nm) of 0.025 OD.
